Where no end group is shown, it is not given here.

Holding throughout (details): both partners purified
Assay [1] has as its target T1, E3 ubiquitin-protein ligase NEDD4 (NEDD4) WW2 domain, GST-tagged (human).
T1 construct: also called NEDD4 WW2-GST
The assay can be described thus: fluorescence polarisation. (Fluorescence polarisation rises when a labelled molecule tumbles more slowly, as on binding a larger partner.)

For assay [2], the target named is importin subunit α-8 (KPNA7) ARM domain. The assay can be described thus: fluorescence polarisation; displacement as a1, with a FITC-labelled probe sampling the major pocket of the ARM domain (KPNA4, KPNA7).
Sequence of importin subunit α-8 (KPNA7) ARM domain (chain, as listed by the source): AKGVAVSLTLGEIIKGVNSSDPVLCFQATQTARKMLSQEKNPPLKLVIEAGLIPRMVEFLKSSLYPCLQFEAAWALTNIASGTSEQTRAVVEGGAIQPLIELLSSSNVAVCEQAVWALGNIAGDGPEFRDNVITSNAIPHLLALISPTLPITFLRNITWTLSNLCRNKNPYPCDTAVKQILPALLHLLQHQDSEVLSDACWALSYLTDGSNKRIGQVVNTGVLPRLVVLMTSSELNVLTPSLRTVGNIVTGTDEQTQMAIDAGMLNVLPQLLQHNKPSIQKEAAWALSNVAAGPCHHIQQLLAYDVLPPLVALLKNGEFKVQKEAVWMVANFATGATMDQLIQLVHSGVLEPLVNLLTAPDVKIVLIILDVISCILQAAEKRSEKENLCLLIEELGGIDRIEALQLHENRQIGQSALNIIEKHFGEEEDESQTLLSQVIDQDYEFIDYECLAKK
Assay [3] deals with T2, Ras-GTPase-activating protein-binding protein 1 (G3BP1) NTF2 domain (human, UniProt Q13283 11-133).
T2 construct: G3BP1, NTF2 domain; limits in Dataset EV2; source: E. coli BL21 DE (Gold), purified
Kind of assay: fluorescence polarisation; displacement: unlabelled peptide titrated onto a complex of FITC-labelled peptide (10 nM) and protein domain (1-2x KD); 50 mM sodium phosphate buffer pH 7.4 (CASK: plus 100 mM NaCl); KD calculated from IC50; technical triplets.
T2 sequence (Q13283 11-133): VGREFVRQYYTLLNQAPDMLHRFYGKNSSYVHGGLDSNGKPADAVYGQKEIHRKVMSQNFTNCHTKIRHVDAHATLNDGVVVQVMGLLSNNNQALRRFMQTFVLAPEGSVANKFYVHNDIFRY

Another assay deals with T3, PPIA (human, UniProt P62937 1-165).
T3 construct: PPIA, human; source: E. coli BL21 (DE3) Gold, purified (glutathione or Ni2+ beads)
T3 sequence (P62937 whole entry): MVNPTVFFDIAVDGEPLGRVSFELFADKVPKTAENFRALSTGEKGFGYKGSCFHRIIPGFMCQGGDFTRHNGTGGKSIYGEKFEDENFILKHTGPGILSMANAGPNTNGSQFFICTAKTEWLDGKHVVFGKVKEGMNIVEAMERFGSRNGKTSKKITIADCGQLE
The assay can be described thus: fluorescence polarisation; saturation binding: dilution series of the protein domain added to 10 nM FITC-labelled peptide; 50 mM sodium phosphate pH 7.4, 0.05% Tween (protein dialysed in 50 mM sodium phosphate with 1 mM DTT; CASK kinase domain with 100 mM NaCl in addition); quadratic fit; technical triplets.

For the next assay, the target named is T4, CREBBP KIX (human, UniProt Q92793 587-666).
T4 construct: CREBBP, KIX domain; limits in Dataset EV2; source: E. coli BL21 DE (Gold), purified
T4 sequence (Q92793 587-666): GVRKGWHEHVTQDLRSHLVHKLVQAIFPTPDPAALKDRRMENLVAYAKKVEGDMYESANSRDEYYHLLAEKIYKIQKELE
The assay can be described thus: fluorescence polarisation; displacement: unlabelled peptide titrated onto a complex of FITC-labelled peptide (10 nM) and protein domain (1-2x KD); 50 mM sodium phosphate buffer pH 7.4 (CASK: plus 100 mM NaCl); KD calculated from IC50; technical triplets.

The target of assay [4] is T5, peripheral plasma membrane protein CASK (CASK) kinase domain (human, UniProt O14936 12-276).
T5 construct: CASK, kinase domain; limits in Dataset EV2; source: E. coli Rosetta, purified
T5 sequence (looked up): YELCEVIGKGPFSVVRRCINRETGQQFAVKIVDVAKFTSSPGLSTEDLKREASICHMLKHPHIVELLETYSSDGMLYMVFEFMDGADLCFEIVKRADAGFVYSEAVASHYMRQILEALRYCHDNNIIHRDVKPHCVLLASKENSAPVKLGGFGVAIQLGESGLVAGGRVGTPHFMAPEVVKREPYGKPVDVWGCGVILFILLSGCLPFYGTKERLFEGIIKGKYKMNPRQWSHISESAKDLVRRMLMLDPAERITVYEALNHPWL
The assay is described as above.

For a further assay, the target named is T6, FITC-NCOR2 (also: FITC label, position not given here).
T6 chain: PKRTYDMMEGRVGRAI
The assay can be described thus: fluorescence polarisation; saturation binding: dilution series of the protein domain added to 10 nM FITC-labelled peptide; 50 mM sodium phosphate pH 7.4, 0.05% Tween (protein dialysed in 50 mM sodium phosphate with 1 mM DTT; CASK kinase domain with 100 mM NaCl in addition); quadratic fit; technical triplets.

Another assay concerns the target T7, FITC-MYC (also: FITC label, position not given here).
T7 chain: PAAKRVKLD
Described as above.

The target in assay [5] is T8, Ras-GTPase-activating protein-binding protein 2 (G3BP2) NTF2 domain (human, UniProt Q9UN86 11-133).
T8 sequence (looked up): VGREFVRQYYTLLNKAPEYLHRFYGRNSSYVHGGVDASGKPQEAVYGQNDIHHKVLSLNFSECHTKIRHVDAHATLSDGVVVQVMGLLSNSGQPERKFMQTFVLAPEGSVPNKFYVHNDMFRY
The assay can be described thus: fluorescence polarisation.

In assay [6] the target is T9, Ras-GTPase-activating protein-binding protein 1 (G3BP1) NTF2 domain (human, UniProt Q13283 11-133).
T9 construct: also called G3BP1 NTF1
Kind of assay: fluorescence polarisation.
T9 sequence (Q13283 11-133): as the sequence (Q13283 11-133) above

Assay [7] addresses T10, clathrin N-terminal domain (CLTC NTD) (human).
T10 chain: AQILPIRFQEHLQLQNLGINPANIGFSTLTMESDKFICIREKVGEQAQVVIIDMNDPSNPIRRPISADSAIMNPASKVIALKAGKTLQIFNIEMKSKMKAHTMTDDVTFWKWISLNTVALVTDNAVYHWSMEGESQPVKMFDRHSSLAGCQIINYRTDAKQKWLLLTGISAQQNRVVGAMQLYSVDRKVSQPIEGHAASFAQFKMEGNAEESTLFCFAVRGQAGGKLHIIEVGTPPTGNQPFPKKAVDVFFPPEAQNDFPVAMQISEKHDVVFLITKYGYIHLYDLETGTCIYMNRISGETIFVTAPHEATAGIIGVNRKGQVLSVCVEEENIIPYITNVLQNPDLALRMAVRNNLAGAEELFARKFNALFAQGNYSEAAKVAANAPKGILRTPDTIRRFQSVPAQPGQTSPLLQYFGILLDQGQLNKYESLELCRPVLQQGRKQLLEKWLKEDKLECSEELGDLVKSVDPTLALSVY
Kind of assay: fluorescence polarisation; displacement: unlabelled peptide titrated onto a complex of FITC-labelled peptide (10 nM) and protein domain (1-2x KD); 50 mM sodium phosphate buffer pH 7.4 (CASK: plus 100 mM NaCl); KD calculated from IC50; technical triplets.

Assay [8] deals with T11, Ras-GTPase-activating protein-binding protein 2 (G3BP2) NTF2 domain (human, UniProt Q9UN86 11-133).
T11 construct: G3BP2, NTF2 domain; limits in Dataset EV2; source: E. coli BL21 DE (Gold), purified
T11 sequence (looked up): T8 sequence (looked up)
The description is as above.

The target in assay [9] is T12, ADP-ribosylation factor-binding protein GGA1 (GGA1) VHS domain (human, UniProt Q9UJY5 17-147).
T12 construct: GGA1, VHS domain; limits in Dataset EV2; source: E. coli BL21 DE (Gold), purified
T12 sequence (looked up): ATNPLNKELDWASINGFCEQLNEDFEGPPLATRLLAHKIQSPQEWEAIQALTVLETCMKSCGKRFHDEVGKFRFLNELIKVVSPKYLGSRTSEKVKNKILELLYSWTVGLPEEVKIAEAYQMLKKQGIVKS
The assay is described as above.

Assay [10] concerns the target T13, importin subunit α-3 (KPNA4) ARM domain (human).
T13 chain: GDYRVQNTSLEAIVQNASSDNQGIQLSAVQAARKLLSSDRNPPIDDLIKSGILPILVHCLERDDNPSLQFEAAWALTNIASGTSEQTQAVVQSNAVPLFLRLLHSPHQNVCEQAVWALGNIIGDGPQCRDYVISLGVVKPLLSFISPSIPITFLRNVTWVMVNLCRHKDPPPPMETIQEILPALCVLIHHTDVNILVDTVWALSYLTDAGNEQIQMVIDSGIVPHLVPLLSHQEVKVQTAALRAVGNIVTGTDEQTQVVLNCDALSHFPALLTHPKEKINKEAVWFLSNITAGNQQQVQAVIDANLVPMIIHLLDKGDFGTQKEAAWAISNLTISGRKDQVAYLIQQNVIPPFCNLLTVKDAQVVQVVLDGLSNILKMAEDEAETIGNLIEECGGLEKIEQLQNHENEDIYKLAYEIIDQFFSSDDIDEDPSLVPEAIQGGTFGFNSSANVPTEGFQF
Kind of assay: fluorescence polarisation; displacement as a1, with a FITC-labelled probe sampling the major pocket of the ARM domain (KPNA4, KPNA7).

Assay [11] has as its target T13, importin subunit α-3 (KPNA4) ARM domain. The assay can be described thus: fluorescence polarisation; displacement as a1, with a FITC-labelled probe sampling the minor pocket of the KPNA4 ARM domain.
The target in assay [12] is T14, Clathrin N-terminal domain (CLTC NTD) (human).
T14 construct: also called Clathrin NTD
Kind of assay: fluorescence polarisation.

T1 sequence (P46934 whole entry, the tested form may be a part): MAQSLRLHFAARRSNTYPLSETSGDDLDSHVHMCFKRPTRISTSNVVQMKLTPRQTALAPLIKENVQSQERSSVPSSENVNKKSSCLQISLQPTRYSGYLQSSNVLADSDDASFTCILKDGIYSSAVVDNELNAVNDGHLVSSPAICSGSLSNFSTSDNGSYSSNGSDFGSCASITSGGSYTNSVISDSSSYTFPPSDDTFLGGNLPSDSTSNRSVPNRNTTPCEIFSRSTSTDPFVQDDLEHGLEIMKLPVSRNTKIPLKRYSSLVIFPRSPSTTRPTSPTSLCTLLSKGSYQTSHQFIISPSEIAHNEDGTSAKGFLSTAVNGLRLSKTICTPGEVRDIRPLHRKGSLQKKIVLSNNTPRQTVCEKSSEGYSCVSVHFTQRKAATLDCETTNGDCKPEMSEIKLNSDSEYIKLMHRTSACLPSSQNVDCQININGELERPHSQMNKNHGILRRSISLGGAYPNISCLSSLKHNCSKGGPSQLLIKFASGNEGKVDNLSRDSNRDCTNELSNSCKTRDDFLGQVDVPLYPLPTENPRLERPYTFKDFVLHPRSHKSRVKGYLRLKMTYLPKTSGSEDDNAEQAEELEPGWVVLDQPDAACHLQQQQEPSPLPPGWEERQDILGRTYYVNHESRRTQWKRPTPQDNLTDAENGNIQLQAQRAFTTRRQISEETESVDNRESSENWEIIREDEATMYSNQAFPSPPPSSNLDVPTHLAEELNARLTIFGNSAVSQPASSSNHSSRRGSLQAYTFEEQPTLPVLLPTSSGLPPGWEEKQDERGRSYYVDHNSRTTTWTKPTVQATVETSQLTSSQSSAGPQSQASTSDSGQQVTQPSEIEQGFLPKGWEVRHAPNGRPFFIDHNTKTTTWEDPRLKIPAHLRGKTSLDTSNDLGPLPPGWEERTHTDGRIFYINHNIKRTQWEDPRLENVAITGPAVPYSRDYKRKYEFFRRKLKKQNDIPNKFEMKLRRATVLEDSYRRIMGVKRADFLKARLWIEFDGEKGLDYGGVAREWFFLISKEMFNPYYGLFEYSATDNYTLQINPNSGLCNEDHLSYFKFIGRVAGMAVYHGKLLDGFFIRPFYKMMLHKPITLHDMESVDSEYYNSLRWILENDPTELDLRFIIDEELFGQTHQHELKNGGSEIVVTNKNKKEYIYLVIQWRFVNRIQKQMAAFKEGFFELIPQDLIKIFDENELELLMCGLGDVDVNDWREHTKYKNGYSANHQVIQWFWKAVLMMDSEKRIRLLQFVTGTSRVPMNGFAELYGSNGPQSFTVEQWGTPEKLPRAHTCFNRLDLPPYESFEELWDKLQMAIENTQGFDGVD

One may read the Kd as the constant that tells how readily two partners part at equilibrium. Turning to TDSPPPYSAG (also: FITC label, position not given here) [FITC-UL56(HHV-2)], in assay [1], the Kd was 4.1 µM.

B1: CDC45_(152-166) wild-type peptide (peptide)
peptide: EPSEKRTRLEEEIVEY
notes: also called CDC45 R157C wild-type; source: synthetic peptide, bought: Genecust
For the molecule B1, in assay [2], the “KD, major pocket” value came to 6.6 µM.

B2: CTNNB1_(27-42) S33F peptide (peptide)
peptide: QQSYLDFGIHSGATTT
notes: β-catenin residues 27-42; also called CTNNB1 S33F mutant; source: synthetic peptide, bought: Genecust
B2: in [3], the Kd is 57 µM.

EQVEYGPLQAQM (also: FITC label, position not given here) [FITC-SPHK2] registered a Kd with PPIA of 42 µM.

B3: KMT2A 2847-2861 wild-type peptide (peptide)
peptide: SDIMDFVLKNTPSMQY
notes: also called KMT2A L2854Q wild-type; source: synthetic peptide, bought: Genecust
Consider B3, for which, in the assay with CREBBP KIX, the Kd was 380 µM.

B4: KMT2A 2847-2861 L2854Q peptide (peptide)
peptide: SDIMDFVQKNTPSMQY
notes: also called KMT2A L2854Q mutant; source: synthetic peptide, bought: Genecust
In the case of B4, the Kd in the assay with CREBBP KIX was 340 µM.

B5: CDC45_(152-166) R157C peptide (peptide)
peptide: EPSEKCTRLEEEIVEY
notes: also called CDC45 R157C mutant; source: synthetic peptide, bought: Genecust
For the molecule B5, the “KD, major pocket” value in assay [2] is 380 µM.

B6: MAPT 717-731 R723W peptide (peptide)
peptide: YSGDTSPWHLSNVSST
notes: microtubule-associated protein tau residues 717-731; also called MAPT R723W mutant; source: synthetic peptide, bought: Genecust
For B6, in assay [4], the Kd is 39 µM.

B7: Importin subunit alpha-8 (KPNA7) ARM domain (domain or fragment)
chain: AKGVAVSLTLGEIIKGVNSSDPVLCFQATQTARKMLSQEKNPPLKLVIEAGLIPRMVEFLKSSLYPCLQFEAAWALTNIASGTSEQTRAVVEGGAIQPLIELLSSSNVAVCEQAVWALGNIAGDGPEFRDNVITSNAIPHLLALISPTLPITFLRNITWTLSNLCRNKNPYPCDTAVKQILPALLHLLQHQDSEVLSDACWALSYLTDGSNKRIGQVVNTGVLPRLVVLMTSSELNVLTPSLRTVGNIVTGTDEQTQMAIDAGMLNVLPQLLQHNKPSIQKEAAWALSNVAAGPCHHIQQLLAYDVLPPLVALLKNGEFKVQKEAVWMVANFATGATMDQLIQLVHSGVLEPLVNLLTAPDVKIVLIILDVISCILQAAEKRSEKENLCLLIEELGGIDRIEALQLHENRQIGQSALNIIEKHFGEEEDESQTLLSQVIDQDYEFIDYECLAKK
For the molecule B7, the Kd with FITC-NCOR2 amounted to 57 µM; with FITC-MYC, 7.5 µM.

Take APRITFGGPSDS (also: FITC label, position not given here) [FITC-N_SARS-CoV-2]: the Kd amounted to 5.4 µM in assay [5] and 2.51 µM in assay [6].

B8: BCL11A_(44-56) wild-type peptide (peptide)
peptide: DLLTCGQAQMNFPY
notes: BCL11A residues 44-56; source: synthetic peptide, bought: Genecust
In the case of B8, in assay [7], the Kd is 1100 µM.

B9: BCL11A_(44-56) C48F peptide (peptide)
peptide: DLLTFGQAQMNFPY
notes: BCL11A residues 44-56; also called C47F BCL11A; source: synthetic peptide, bought: Genecust
In the case of B9, the Kd in assay [8] was 215 µM; in [7], 361 µM.

B10: NSD1 1793-1808 L1797P peptide (peptide)
peptide: EFPVPFFGSNDYLWTH
notes: also called NSD1 L1797P mutant; source: synthetic peptide, bought: Genecust
Take B10: the Kd in assay [3] was 49 µM.

B11: myosin-9 peptide (MYH9_(1419-1433)) wild-type (peptide)
peptide: YQQELDDLLVDLDHQR
notes: MYH9 residues 1419-1433; also called MYH9 D1424H wild-type; source: synthetic peptide, bought: Genecust
With B11, the Kd in [9] was 101 µM.

B12: MYH9_(1419-1433) D1424H peptide (peptide)
peptide: YQQELDHLLVDLDHQR
notes: MYH9 residues 1419-1433; also called MYH9 D1424H mutant; source: synthetic peptide, bought: Genecust
In the case of B12, in [9], the Kd was 306 µM.

B13: Importin subunit alpha-3 (KPNA4) ARM domain (domain or fragment)
chain: T13 chain
With B13, the values for the Kd with FITC-NCOR2 and with FITC-MYC were 0.03 µM and 0.008 µM, respectively.

B14: ABRAXAS1_(349-364) R361Q peptide (peptide)
peptide: LDLDDRWQFKRSQLLD
notes: also called ABRAXAS1 R361Q mutant; source: synthetic peptide, bought: Genecust
Regarding B14, the “KD, major pocket” value in assay [10] came out at 75 µM. The “KD, minor pocket” value in assay [11] was determined as 297 µM.

B15: MITF 258-271 Y265C peptide (peptide)
peptide: SGNLIDLCGNQGLPY
notes: also called MITF Y265C mutant; source: synthetic peptide, bought: Genecust
B15: the Kd in [7] is 206 µM.

B16: FANCA 1-16 S4L peptide (peptide)
peptide: MSDLWVPNSASGQDPG
notes: FANCA residues 1-16; also called FANCA S4L mutant; source: synthetic peptide, bought: Genecust
B16: the equilibrium dissociation constant (Kd) in [4] was 15 µM.

B17: MITF 258-271 wild-type peptide (peptide)
peptide: SGNLIDLYGNQGLPY
notes: also called MITF Y265C wild-type; source: synthetic peptide, bought: Genecust
B17: the Kd in [7] is 191 µM. SVDLITFDSV (also: FITC label, position not given here) [FITC-NSP3]: in assay [12], the Kd amounted to 21 µM.
